The source of these data is article PMC3792076, “Elucidation of Substrate Specificity in Aspergillus nidulans UDP-Galactose-4-Epimerase” (PLoS ONE, 2013).

For orientation: stoichiometry N means a count of units in the complex or per binding partner.

For the assay, the target named is UDP-galactose-4-epimerase from Aspergillus nidulans (Aspergillus nidulans). Nature of the assay: crystal structure; microbatch at 277 K, 20% (w/v) PEG3350, 0.1 M Bis-Tris propane pH 7.5, 0.2 M sodium fluoride, grown with 10 mM UDP-glucose; space group C2, three monomers per asymmetric unit (one homodimer and one monomer that forms a dimer through symmetry); 2.8 Å.

Substance “UDP-galactose-4-epimerase from Aspergillus nidulans (enzyme)” displayed a stoichiometry N of 2.
